Experiments:
AncSZ = test: phosphorylation enrichment, bacterial display (enrichment ratio); higher = better substrate or ligand; peptides without Tyr show the background
EPHB1 = EPHB1 (UniProt P54762); test: as above
EPHB2 = EPHB2 (UniProt P29323); test: as above
FGFR1 = FGFR1 (UniProt P11362); test: as above
FGFR3 = FGFR3 (UniProt P22607); test: as above
Fer (mouse) = test: as above
Fes = Fes (UniProt P07332); test: as above
Fyn = Fyn (UniProt P06241); test: as above
Hck = Hck (UniProt P08631); test: as above
Jak2 = Jak2 (UniProt O60674); test: as above
MERTK = MERTK (UniProt Q12866); test: as above
c-Abl (mouse) = test: as above
c-Src = test: as above
Grb2 SH2 = Grb2 SH2 (UniProt P62993); test: SH2 binding enrichment of the phosphorylated peptide, bacterial display (enrichment ratio); higher = better substrate or ligand; peptides without Tyr show the background
SHP2-C SH2 = test: as above
c-Src SH2 = test: as above
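Throughout, for SH2 binding enrichment of the phosphorylated peptide, bacterial display: peptide library displayed on the E. coli surface as eCPX fusions, selected cells deep-sequenced, score is each peptide's frequency after selection divided by its frequency in the input.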
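Throughout, for phosphorylation enrichment, bacterial display: 11-residue human phosphosite peptides and single-mutation variants displayed on the E. coli surface, counted by deep sequencing, each peptide's frequency after selection divided by its frequency in the unselected input library; frequency after pTyr selection over input frequency; kinase dosed for 20-30% of maximal phosphorylation in three min.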

Hck, sequence (P08631 whole entry, looked up): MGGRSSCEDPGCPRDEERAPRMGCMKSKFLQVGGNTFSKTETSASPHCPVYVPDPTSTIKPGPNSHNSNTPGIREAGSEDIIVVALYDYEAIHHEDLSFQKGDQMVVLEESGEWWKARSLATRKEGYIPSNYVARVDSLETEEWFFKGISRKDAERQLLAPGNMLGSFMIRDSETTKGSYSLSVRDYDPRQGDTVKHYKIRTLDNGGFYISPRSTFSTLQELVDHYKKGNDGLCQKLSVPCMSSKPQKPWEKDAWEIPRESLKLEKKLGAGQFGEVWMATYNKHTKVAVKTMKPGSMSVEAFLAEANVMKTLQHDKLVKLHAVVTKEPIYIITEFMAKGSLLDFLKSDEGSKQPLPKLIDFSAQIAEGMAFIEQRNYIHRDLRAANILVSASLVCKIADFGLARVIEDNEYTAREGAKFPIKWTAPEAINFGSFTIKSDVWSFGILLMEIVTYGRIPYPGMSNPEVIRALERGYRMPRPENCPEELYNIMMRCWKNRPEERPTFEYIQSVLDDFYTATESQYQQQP
Fyn, sequence (P06241 whole entry, looked up): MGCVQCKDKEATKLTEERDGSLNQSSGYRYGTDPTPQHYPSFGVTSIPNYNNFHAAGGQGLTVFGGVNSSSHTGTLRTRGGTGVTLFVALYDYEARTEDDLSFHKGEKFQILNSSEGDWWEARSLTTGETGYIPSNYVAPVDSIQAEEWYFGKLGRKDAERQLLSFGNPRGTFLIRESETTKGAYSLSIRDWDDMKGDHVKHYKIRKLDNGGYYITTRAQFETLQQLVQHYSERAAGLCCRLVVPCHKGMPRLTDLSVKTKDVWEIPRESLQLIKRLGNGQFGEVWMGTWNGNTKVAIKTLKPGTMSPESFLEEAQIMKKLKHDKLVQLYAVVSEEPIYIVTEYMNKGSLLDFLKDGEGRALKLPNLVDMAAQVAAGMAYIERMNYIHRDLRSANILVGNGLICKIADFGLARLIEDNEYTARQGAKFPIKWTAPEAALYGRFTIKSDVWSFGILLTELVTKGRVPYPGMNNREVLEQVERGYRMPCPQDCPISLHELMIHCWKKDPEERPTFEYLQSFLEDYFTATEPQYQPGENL
FGFR3, sequence (P22607 whole entry, looked up): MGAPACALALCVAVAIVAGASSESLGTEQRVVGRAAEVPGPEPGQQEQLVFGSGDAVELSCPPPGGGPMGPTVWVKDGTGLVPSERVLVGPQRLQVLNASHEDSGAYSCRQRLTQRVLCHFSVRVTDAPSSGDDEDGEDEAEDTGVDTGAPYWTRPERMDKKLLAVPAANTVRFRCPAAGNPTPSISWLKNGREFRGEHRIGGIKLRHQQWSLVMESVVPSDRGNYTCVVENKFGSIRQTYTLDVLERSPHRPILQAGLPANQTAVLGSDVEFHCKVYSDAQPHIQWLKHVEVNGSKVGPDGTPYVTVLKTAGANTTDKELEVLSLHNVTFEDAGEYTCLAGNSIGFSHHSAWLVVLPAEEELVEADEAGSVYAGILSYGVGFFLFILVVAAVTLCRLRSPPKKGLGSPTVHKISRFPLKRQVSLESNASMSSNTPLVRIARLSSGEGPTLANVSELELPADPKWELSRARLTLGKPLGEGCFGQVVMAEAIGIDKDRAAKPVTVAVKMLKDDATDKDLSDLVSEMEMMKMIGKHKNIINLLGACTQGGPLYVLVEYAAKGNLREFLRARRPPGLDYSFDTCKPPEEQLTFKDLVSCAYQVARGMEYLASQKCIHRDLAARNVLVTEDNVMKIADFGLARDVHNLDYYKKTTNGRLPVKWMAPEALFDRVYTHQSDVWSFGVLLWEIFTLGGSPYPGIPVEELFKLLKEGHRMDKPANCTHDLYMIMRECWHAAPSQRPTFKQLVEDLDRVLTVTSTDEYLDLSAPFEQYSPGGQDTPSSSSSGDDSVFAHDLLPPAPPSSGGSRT
MERTK, sequence (Q12866 whole entry, looked up): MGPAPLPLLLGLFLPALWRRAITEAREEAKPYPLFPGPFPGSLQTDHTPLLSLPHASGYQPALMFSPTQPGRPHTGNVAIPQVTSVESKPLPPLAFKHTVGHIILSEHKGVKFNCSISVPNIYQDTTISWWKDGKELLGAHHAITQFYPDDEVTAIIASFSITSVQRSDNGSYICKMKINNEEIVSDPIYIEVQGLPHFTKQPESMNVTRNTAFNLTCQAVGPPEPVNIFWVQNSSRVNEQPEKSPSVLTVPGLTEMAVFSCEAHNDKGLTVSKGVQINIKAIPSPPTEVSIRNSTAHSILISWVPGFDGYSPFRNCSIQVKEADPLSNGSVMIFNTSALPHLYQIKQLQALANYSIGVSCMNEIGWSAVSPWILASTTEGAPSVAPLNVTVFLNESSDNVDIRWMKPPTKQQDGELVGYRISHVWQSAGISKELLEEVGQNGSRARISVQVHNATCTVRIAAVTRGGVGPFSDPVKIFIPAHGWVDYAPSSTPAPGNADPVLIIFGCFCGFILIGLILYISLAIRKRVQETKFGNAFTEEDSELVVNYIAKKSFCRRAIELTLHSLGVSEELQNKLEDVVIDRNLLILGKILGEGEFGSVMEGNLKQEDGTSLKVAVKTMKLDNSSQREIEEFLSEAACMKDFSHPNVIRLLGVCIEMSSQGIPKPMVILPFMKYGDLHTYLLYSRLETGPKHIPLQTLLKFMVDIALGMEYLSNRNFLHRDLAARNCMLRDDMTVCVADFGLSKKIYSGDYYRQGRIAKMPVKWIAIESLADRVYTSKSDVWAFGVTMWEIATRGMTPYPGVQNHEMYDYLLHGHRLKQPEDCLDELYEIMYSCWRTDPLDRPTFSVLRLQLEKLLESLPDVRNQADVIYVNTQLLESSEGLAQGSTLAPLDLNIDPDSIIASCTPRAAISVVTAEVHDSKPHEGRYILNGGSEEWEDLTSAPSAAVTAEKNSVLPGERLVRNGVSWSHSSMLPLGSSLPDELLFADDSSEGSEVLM
Fes, sequence (P07332 whole entry, looked up): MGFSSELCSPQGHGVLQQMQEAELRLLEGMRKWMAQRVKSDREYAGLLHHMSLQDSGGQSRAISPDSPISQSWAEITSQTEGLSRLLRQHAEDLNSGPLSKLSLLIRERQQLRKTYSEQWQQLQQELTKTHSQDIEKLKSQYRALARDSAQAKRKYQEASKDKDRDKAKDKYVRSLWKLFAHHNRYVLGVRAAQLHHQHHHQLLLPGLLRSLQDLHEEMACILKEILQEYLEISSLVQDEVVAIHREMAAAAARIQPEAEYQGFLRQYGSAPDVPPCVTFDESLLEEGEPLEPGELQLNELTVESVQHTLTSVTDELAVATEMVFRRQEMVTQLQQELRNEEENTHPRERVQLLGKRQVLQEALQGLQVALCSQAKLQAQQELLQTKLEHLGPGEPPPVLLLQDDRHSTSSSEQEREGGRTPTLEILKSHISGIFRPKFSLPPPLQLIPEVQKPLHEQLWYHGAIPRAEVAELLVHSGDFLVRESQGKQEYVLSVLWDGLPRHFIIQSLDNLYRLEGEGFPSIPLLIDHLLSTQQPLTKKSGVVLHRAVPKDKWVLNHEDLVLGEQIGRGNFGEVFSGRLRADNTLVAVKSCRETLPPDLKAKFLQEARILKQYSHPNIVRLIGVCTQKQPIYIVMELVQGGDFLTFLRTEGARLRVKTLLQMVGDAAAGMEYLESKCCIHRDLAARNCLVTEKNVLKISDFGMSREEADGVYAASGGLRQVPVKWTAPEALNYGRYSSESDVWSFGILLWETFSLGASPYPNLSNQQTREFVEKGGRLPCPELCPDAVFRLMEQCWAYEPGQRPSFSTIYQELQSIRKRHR
FGFR1, sequence (P11362 whole entry, looked up): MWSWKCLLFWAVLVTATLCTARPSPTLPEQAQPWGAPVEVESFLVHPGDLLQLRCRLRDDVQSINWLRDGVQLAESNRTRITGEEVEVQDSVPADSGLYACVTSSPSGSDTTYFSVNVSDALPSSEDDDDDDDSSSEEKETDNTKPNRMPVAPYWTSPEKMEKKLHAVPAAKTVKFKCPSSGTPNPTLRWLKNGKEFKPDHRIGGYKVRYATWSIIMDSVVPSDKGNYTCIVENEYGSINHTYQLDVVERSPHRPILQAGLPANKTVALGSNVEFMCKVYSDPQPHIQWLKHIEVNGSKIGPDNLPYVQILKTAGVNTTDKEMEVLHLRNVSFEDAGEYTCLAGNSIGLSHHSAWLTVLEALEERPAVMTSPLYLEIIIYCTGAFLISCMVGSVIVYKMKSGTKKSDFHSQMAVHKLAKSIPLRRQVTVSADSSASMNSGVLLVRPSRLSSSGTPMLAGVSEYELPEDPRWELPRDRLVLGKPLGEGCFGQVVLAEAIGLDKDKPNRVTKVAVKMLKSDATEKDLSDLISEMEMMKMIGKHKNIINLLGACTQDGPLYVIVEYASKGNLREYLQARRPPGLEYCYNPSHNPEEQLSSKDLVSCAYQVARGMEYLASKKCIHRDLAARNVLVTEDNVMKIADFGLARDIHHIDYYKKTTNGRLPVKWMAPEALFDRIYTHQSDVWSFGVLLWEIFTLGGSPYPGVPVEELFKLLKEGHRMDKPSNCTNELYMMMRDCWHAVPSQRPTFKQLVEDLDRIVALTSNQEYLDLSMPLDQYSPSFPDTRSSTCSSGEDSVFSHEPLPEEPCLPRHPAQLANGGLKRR

Row | Sequence | SH2 binding enrichment (Grb2 SH2) | SH2 binding enrichment (SHP2-C SH2) | SH2 binding enrichment (c-Src SH2) | phosphorylation enrichment (AncSZ) | phosphorylation enrichment (EPHB1) | phosphorylation enrichment (EPHB2) | phosphorylation enrichment (FGFR1) | phosphorylation enrichment (FGFR3) | phosphorylation enrichment (Fer (mouse)) | phosphorylation enrichment (Fes) | phosphorylation enrichment (Fyn) | phosphorylation enrichment (Hck) | phosphorylation enrichment (Jak2) | phosphorylation enrichment (MERTK) | phosphorylation enrichment (c-Abl (mouse)) | phosphorylation enrichment (c-Src)
1 | FRTGHYLCNAC [GATA1_Y223_D218Y_YF] | 1.14 | 1.07 | 0.743 | 0.62 | 0.479 | 0.484 | 0.566 | 0.625 | 0.363 | 0.634 | 0.44 | 0.443 | 0.53 | 0.399 | 0.393 | 0.401
2 | FSDPDYLAAVD [GLB1_Y154_S149F] | 0.746 | 0.551 | 0.417 | 1.45 | 0.58 | 0.556 | 0.479 | 0.691 | 0.475 | 0.939 | 0.504 | 0.702 | 0.928 | 0.42 | 0.577 | 0.381
3 | FSGKAYADEER [CRIM1_Y826] | 1 | 0.748 | 0.515 | 0.895 | 0.565 | 0.571 | 0.694 | 0.566 | 0.486 | 1.03 | 0.463 | 0.499 | 0.837 | 0.395 | 0.786 | 0.496
4 | FSLIHYAGIVV [MYH7_Y582_D587V] | 1.01 | 2.77 | 0.689 | 1.13 | 0.652 | 0.59 | 0.482 | 0.777 | 0.729 | 1.37 | 0.532 | 0.568 | 1.3 | 0.45 | 1.04 | 0.621
5 | FTRNFYVRAVL [CYBA_Y88_YF] | 0.581 | 0.658 | 0.448 | 1.36 | 0.831 | 0.713 | 0.635 | 1.11 | 0.689 | 1.58 | 0.529 | 0.565 | 1.54 | 0.503 | 1.57 | 0.554
6 | GDEEDYFEIPG [EGFR_opt_F_2015] | 0.875 | 0.632 | 0.706 | 2.75 | 0.571 | 0.723 | 4.57 | 5.08 | 0.5 | 1.22 | 0.504 | 0.532 | 1.21 | 0.532 | 0.78 | 0.628
7 | GDEVEYMLVSF [GCLC_Y53] | 0.821 | 0.701 | 0.407 | 2.31 | 0.665 | 0.829 | 3.97 | 3.39 | 2.43 | 1.1 | 0.841 | 1.15 | 0.976 | 0.473 | 0.677 | 1.16
8 | GDNNIYVTKII [DLG1_Y349_S347N] | 0.836 | 0.687 | 0.546 | 0.806 | 0.525 | 0.556 | 0.574 | 0.61 | 0.595 | 0.991 | 0.894 | 1.21 | 0.942 | 0.461 | 0.701 | 0.93
9 | GELQGYDIMEP [MSH2_Y863_S860L] | 0.851 | 0.534 | 4.99 | 1.23 | 0.554 | 0.522 | 0.445 | 0.666 | 0.471 | 1.13 | 0.412 | 0.508 | 1.13 | 0.419 | 0.658 | 0.436
10 | GENTVYAQVFN [LY9_Y603_M602V] | 0.829 | 7.82 | 1.03 | 0.819 | 1.53 | 1.23 | 0.599 | 0.616 | 7 | 0.918 | 6.74 | 6.46 | 0.718 | 2.21 | 2.92 | 5.05
11 | GFRPVYSEDEQ [CHST6_Y362_YF] | 0.904 | 0.73 | 0.645 | 1.35 | 0.754 | 0.699 | 0.584 | 0.835 | 0.617 | 1.49 | 0.592 | 0.615 | 1.47 | 0.559 | 1.27 | 0.836
12 | GGGGSYNDFGN [HNRNPA1_Y312] | 0.745 | 0.659 | 0.513 | 0.599 | 0.433 | 0.39 | 0.471 | 0.5 | 0.33 | 0.791 | 1.17 | 0.474 | 0.579 | 0.422 | 0.458 | 0.441
13 | GGMAEYTRLHN [EHHADH_Y4] | 0.864 | 0.742 | 1.29 | 0.609 | 0.494 | 0.374 | 0.382 | 0.442 | 0.359 | 0.597 | 0.32 | 0.451 | 0.691 | 0.378 | 0.532 | 0.421
14 | GIATGYLVLKE [DNMT3B_Y588] | 0.744 | 2.28 | 0.717 | 0.737 | 0.511 | 0.558 | 0.464 | 0.611 | 0.376 | 0.77 | 0.385 | 0.511 | 0.836 | 0.357 | 0.533 | 0.4
15 | GKTQQYECKWY [BCR_Y751_D752E] | 0.677 | 0.584 | 0.735 | 0.936 | 0.507 | 0.6 | 0.499 | 0.642 | 0.549 | 1.05 | 0.443 | 0.447 | 0.97 | 0.487 | 0.681 | 0.522
16 | GLAELYEFQKK [CKAP5_Y1854_K1857Q_YF] | 0.666 | 0.473 | 0.795 | 0.973 | 0.59 | 0.564 | 0.539 | 0.94 | 0.656 | 0.857 | 0.64 | 1.23 | 0.58 | 0.526 | 0.428 | 0.937
17 | GLAKGYIDPET [CSNK1G2_Y195_E194G] | 0.823 | 0.922 | 0.5 | 1.04 | 0.509 | 0.588 | 0.476 | 0.48 | 0.482 | 0.795 | 0.558 | 0.513 | 0.694 | 0.472 | 0.454 | 0.554
18 | GLRYGYGGLGG [KRTAP20-2_Y15_V17G] | 0.826 | 0.557 | 0.568 | 0.507 | 0.349 | 0.31 | 0.339 | 0.412 | 0.334 | 0.564 | 0.349 | 0.329 | 0.44 | 0.349 | 0.431 | 0.398
19 | GMRHGHGVRQS [JPH2_Y141_Y141H] | 1.27 | 1.31 | 1 | 0.646 | 0.775 | 0.45 | 0.471 | 0.696 | 0.529 | 0.803 | 0.419 | 0.495 | 0.975 | 0.462 | 1.28 | 0.529

Now from value to sequence, other results behind:

Row | SH2 binding enrichment (Grb2 SH2) | SH2 binding enrichment (SHP2-C SH2) | SH2 binding enrichment (c-Src SH2) | Sequence | phosphorylation enrichment (AncSZ) | phosphorylation enrichment (EPHB1) | phosphorylation enrichment (EPHB2) | phosphorylation enrichment (FGFR1) | phosphorylation enrichment (FGFR3) | phosphorylation enrichment (Fer (mouse)) | phosphorylation enrichment (Fes) | phosphorylation enrichment (Fyn) | phosphorylation enrichment (Hck) | phosphorylation enrichment (Jak2) | phosphorylation enrichment (MERTK) | phosphorylation enrichment (c-Abl (mouse)) | phosphorylation enrichment (c-Src)
20 | 1.22 | 1.17 | 1.27 | FSALDYKIFYY [WDPCP_Y210_L205F] | 1.38 | 0.928 | 0.588 | 1.23 | 1.18 | 0.529 | 1.45 | 0.613 | 0.473 | 1.4 | 0.462 | 1.2 | 0.763
21 | 0.925 | 0.529 | 0.582 | FSAPNCCYRCG [PPP2CA_Y265_Y265C] | 1 | 0.671 | 0.676 | 0.489 | 0.76 | 0.547 | 1.21 | 0.518 | 0.55 | 1.02 | 0.505 | 0.833 | 0.5
22 | 0.728 | 0.721 | 0.461 | GASWRYGSGVS [NEU1_Y242] | 0.637 | 0.512 | 0.432 | 0.531 | 0.617 | 0.428 | 0.782 | 0.479 | 0.505 | 0.566 | 0.413 | 0.506 | 0.42
23 | 1.56 | 1.14 | 1.24 | GCCSWYRGWAP [TIMP3_Y195_Y191C] | 0.944 | 0.563 | 0.565 | 1.38 | 0.966 | 3.84 | 0.967 | 0.651 | 0.784 | 0.705 | 0.459 | 0.59 | 3.1
24 | 1.11 | 0.928 | 0.845 | GCKNHYDKDKP [THAP1_Y14_R13H] | 0.583 | 0.396 | 0.521 | 0.555 | 0.562 | 0.521 | 1.02 | 0.423 | 0.411 | 0.616 | 0.504 | 0.736 | 0.445
25 | 0.83 | 0.906 | 0.596 | GCVSKYSGVFS [TUBGCP6_Y1624] | 0.815 | 0.433 | 0.458 | 0.321 | 0.51 | 0.403 | 0.964 | 0.357 | 0.411 | 0.81 | 0.514 | 0.619 | 0.463
26 | 1.01 | 0.812 | 0.612 | GDEAIYATVAG [NRTKtide_2018] | 1.59 | 12.1 | 15.5 | 3.87 | 3 | 13.4 | 2.64 | 10.7 | 9.26 | 0.803 | 9.16 | 22.1 | 7.59
27 | 0.851 | 0.862 | 0.681 | GDYYCYLAEVA [YWHAG_Y133_R132C] | 5.32 | 13 | 14.7 | 13.5 | 12.3 | 5.61 | 1.64 | 4.95 | 4.66 | 6.33 | 7.27 | 5.22 | 4.14
28 | 0.788 | 0.832 | 0.405 | GFQPEYGQPAG [SYP_Y278_D277E_YF] | 0.685 | 0.501 | 0.542 | 0.479 | 0.917 | 0.506 | 0.741 | 0.592 | 0.4 | 0.723 | 0.424 | 0.586 | 0.671
29 | 1.17 | 0.861 | 0.598 | GFRVFYTPDSR [PTPRF_Y451_YF] | 0.962 | 0.562 | 0.448 | 0.52 | 0.64 | 0.462 | 1.19 | 0.468 | 0.564 | 1.03 | 0.37 | 0.612 | 0.449
30 | 0.779 | 0.591 | 0.409 | GGFTCYCDGKK [PROS1_Y266_YF] | 1.12 | 0.608 | 0.515 | 0.457 | 0.865 | 0.511 | 1.19 | 0.485 | 0.484 | 0.998 | 0.419 | 0.758 | 0.354
31 | 0.821 | 0.767 | 0.591 | GGQEDYDRLRP [RAC3_Y64_A59G] | 1.17 | 0.566 | 0.691 | 0.528 | 0.624 | 0.522 | 0.948 | 0.458 | 0.759 | 0.861 | 0.461 | 0.616 | 0.494
32 | 0.866 | 0.645 | 0.462 | GIFEDYVEGLR [MYL6_Y89_T85I_YF] | 1.25 | 0.787 | 0.7 | 0.567 | 0.793 | 0.607 | 1.17 | 0.7 | 0.484 | 1.22 | 0.393 | 0.857 | 0.536
33 | 0.895 | 14.7 | 1.28 | GLTSTYAGIRK [ROBO1_Y932] | 0.525 | 0.303 | 0.492 | 0.342 | 0.372 | 0.521 | 0.66 | 1.46 | 6.69 | 0.548 | 0.497 | 0.724 | 1.52
